US12358959B2, “Compositions and methods for oligodendrocyte development” (CHILDREN'S MEDICAL CENTER CORPORATION, priority 2016, dated 2025)

Key:
[1] = system: RhoA; assay: GTP-Rho pull-down assay in HEK 293T cell pellets; type: cell-based; settings: 10 min, HEK 293T transfected with mouse Gpr56
Method: (§1) HEK 293T cells were transiently transfected with mouse Gpr56 cDNA. Twenty-four hours after transfection, the cells were subject to serum starvation for 36 hr followed by the addition of recombinant TG2 250 nM with/without recombinant laminin-111 12.5 nM, or acetic acid as control for 10 min. The conditioned media were harvested, filtered, and concentrated as previously described. Equal volumes of the concentrated media were used for Western blot (Luo et al., PLOS One 9, e100043, 2014), while the cell pellets were used for GTP-Rho pull-down assay.
The corpus callosums (CCs) were dissected under a Leica stereo microscope (MZ 6; Leica™ Pte Ltd.), followed by washes in PBS and lysis in ice-cold RIPA buffer (1% Nonidet P-40, 50 mM Tris pH 7.6, 120 mM NaCl, 1 mM EDTA) containing protease inhibitor cocktail set 1 (Calbiochem). The lysates were cleared of insoluble materials by centrifugation at 16,000×g for 10 min at 4° C. Protein concentration was determined by a Bio-Rad protein assay method (Bio-Rad) according to the manufacturer's protocol, and equal amounts of protein were used for SDS-PAGE and western blot analysis. The GTP-Rho pull-down assay was performed as previously described (Luo et al., Proc Natl Acad Sci USA 108, 12925-12930, 2011). […] Bound Rho proteins were eluted by Laemmli sample buffer and detected by western blot using mouse monoclonal anti-RhoA antibody (Cytoskeleton).

[2] = target: T1, GPR56 (Mus musculus, UniProt Q8K209); assay: TG2 activation assay: GPR56 NTF released into supernatant of HEK 293T cells (Western blot); type: cell-based; settings: 10 min, HEK 293T transfected with mouse Gpr56
T1 construct: expressed in transfected cells; host or cells: HEK 293T
T1 sequence (Q8K209 26-687): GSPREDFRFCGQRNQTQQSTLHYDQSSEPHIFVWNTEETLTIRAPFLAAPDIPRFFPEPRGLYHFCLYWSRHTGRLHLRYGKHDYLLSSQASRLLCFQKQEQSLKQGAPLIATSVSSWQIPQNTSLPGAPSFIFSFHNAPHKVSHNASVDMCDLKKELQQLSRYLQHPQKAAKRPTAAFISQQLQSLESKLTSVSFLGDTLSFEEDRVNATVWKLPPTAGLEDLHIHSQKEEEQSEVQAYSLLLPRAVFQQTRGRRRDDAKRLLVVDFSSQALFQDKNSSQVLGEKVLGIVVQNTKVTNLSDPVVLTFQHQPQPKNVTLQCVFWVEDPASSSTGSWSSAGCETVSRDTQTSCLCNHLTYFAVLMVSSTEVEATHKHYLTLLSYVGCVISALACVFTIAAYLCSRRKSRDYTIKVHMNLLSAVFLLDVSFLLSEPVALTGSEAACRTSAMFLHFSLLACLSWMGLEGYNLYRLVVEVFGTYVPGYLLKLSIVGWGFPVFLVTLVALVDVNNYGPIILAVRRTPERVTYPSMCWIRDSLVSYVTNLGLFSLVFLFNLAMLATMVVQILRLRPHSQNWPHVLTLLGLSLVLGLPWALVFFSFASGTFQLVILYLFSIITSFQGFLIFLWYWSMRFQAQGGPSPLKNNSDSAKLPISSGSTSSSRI
Method: as §1

[3] = system: oligodendrocyte precursors (OPCs); assay: OPC proliferation in culture with recombinant TGM2, BrdU/PDGFRα double immunostaining; type: cell-based, mouse; settings: 2 nM recombinant TGM2, 24 hrs
Method: FIG. 14A depicts a TGM2 western blot on acutely isolated microglia, OPCs, astrocytes and oligodendrocytes. β-actin was used as loading control. FIG. 14B depicts representative images of BrdU (white) and PDGFRα (light gray) double immunostaining on OPC cultured for 24 hrs in proliferation media in the presence and absence of 2 nM recombinant TGM2. Scale bar, 100 μm. FIG. 14C depicts quantification of the percentage of BrdU^+ of total PDGFRα^+ OPCs. *P=0.0492, paired t-test, N=3 per genotype. Error bars are means±s.e.m.
To investigate whether TGM2 directly regulates OPC proliferation in a GPR56-dependent manner, OPCs derived from P5 Gpr56^+/− or Gpr56^−/− pups were cultured in the presence or absence of human recombinant TGM2 (FIGS. 15A and 15B) with the presence of BrdU. The cells were double immunostained for PDGFRα and BrdU (FIG. 14B).

[4] = target: T2, GPR56^N (Mus musculus, UniProt Q8K209); assay: In vitro biotinylation/proteomics pull-down from mixed glial cell lysate with mass spectrometry; settings: peptide sequences specific for binding to GPR56^N
T2 construct: Using the soluble N-terminal fragment of GPR56 (GPR56^N); made in house
T2 sequence (Q8K209 26-382 limits assumed): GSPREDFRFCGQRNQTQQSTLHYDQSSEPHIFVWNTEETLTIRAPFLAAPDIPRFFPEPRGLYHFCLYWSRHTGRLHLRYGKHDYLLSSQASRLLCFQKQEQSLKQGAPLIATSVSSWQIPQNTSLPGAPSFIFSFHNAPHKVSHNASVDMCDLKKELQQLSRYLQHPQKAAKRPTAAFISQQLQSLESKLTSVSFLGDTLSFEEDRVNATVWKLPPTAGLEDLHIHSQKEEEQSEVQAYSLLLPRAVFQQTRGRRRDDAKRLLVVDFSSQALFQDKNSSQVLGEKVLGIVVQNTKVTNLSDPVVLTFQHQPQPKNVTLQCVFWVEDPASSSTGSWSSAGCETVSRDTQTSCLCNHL
Source text: To identify the ligand of GPR56 in OPCs, an in vitro biotinylation/proteomics approach was employed using single-step capture on streptavidin beads to purify the binding partner(s) of GPR56 (FIGS. 2A-2B). Proteins with more than five identified tryptic peptides in the Mass Spectrometry (MS) output from three independent experiments are listed at Table 1.
(§2) GPR56^N and GPR56^Ndel fusions proteins with either mFc or hFc tag were generated as previously described (Luo et al. Proc Natl Acad Sci USA 108, 12925-12930, 2011). BirA enzyme was used to in vitro biotinylate GPR56^N-mFc-biotag protein as previously described (De Laurenzi and Melino Mol Cell Biol 21, 148-155, 2001). Mixed glial cell lysate was incubated with biotinylated GPR56^N protein in lysis buffer [20 mM Hepes (pH 7.3), 150 mM NaCl, and 5 mM MgCl2] with protein inhibitor mixture (Roche Molecular Biochemicals) and 1% Brij 96 (Fluka). Streptavidin beads (Sigma) were used to affinity purify immunocomplexes. GPR56-associated proteins were eluted in 2×SDS loading buffer, subjected to SDS/PAGE. The whole lane was used for MS at the Taplin Biological Mass Spectrometry at Havard Medical School. MS data were searched against the mouse International Protein Index (IPI mouse 339) database using the protein identification software Mascot (v2.2.04, Matrix Sciences) (Luo et al. Proc Natl Acad Sci USA 108, 12925-12930, 2011).
as §2, with “al.,” for “al.”, “(Stacey et al., J” for “(De Laurenzi and Melino Mol Cell”, “Chem 277, 29283-29293, 2002).” for “21, 148-155, 2001).”, “(20” for “[20”, “[pH 7.3],” for “(pH 7.3),”, “MgCl2)” for “MgCl2]”

[5] = TG2 250 nM with laminin-111 12.5 nM

## Transglutaminase 2 [TG2]
[1]; TG2 250 nM alone vs control
  Relative level of GTP-RhoA to total RhoA: n.s.
[1]; [5]
  Relative level of GTP-RhoA to total RhoA: activating RhoA downstream signaling
[2]; TG2 250 nM alone vs control
  Released GPR56 NTF in supernatant: n.s.
[2]; [5]
  Released GPR56 NTF in supernatant: removed the GPR56 NTF
[3]; proliferation media, OPCs printed as Gpr56−/− (first mention; cultures were Gpr56+/− or Gpr56−/−)
  OPC proliferation (percentage of BrdU+ of total PDGFRα+ OPCs): significantly increased
[3]; Gpr56−/− OPCs (second mention)
  OPC proliferation (percentage of BrdU+ of total PDGFRα+ OPCs): attenuated
[4]; experiment 1
  Peptide Number (Exp1): 19
[4]; experiment 2
  Peptide Number (Exp2): 20
[4]; experiment 3
  Peptide Number (Exp3): 17
